The supplement of paper PMC9170038

Test system: K4 kissing-loop RNA reporter
Test: apparent KD of K4 kissing-loop reporter; higher = weaker reporter binding
Details: Eterna round: R107
Procedure: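 RNA-MaP round R107: designed RNA switches with theophylline, tryptophan, arginine or FMN aptamers are transcribed on-chip within common flanks. They are titrated with a labelled K4 kissing-loop RNA reporter in RNA-MaP buffer (100 mM Tris pH 7.5, 80 mM KCl, 4 mM MgCl2), without ligand or with the indicated ligand. Median apparent KD per design.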

[1] = input ligand: theophylline 20 uM
[2] = input ligand: tryptophan 2.4 mM
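Note: bound reporter read as fluorescence of individual clusters on recovered sequencing chips by microscopy, with normalized cluster intensities fitted with a binding model.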

| Sequence | apparent KD of K4 kissing-loop reporter (input ligand: FMN 200 uM) [nM] | apparent KD of K4 kissing-loop reporter (input ligand: arginine 13.2 mM) [nM] | apparent KD of K4 kissing-loop reporter (input ligand: none) [nM] | apparent KD of K4 kissing-loop reporter [1] [nM] | apparent KD of K4 kissing-loop reporter [2] [nM] |
| --- | --- | --- | --- | --- | --- |
| AGACUUCACCGAAGGAGCGACGUGGCCUAGUGAUGUUAGGCACGAGAGAAAUCUCGUAUACGUCAGGUAGGUCGCGGUGAAGUCA [Omei KL Arginine B SS C v6] | 204 | 142 | 165 | 160 | 180 |
| GAGAUGCACCAGUCUUAACGUGACUUAUCCCGAGGACCGGUACGGCCGCCACUCGCGUACUACUAGUGAUGUUGGUCAGUAUGAG [theeternabot_sameState_KL_Trp_A_26] | 244 | 185 | 215 | 223 | 235 |
| UUUAAAUAUAGUGAUGUUAUAUAACAAUGACGAGGACCGGUACGGCCGCCACUCGAGAGAGAUAAUGAUAAAAUAAAUAAUUUUC [AstrosSSTrypA#1] | 480 | 654 | 643 | 628 | 374 |
| AGGCACGAGCAAGGAUAUCGAGUAGAGUGAUGUUCUGCCUGGGUUGGCUCGUAAGAGCCUUCUCAGCGAGAAGGUGCUCGUGCCU [#2 Same State - FMN A Attempt #20 (HarryS)] | 217 | 511 | 544 | 511 | 944 |
| UUUGGUUUCUCGGCCGCCACUCGUUGUCUAUCGGCUUCAGGGAUAUAGUGAUGUUAUGUAUAGAAGAGGACCGGGAGAAGGUUCC [ExTryptoB.Dy] | 217 | 169 | 303 | 237 | 165 |
| GAGCCAGAGGUUGCUGCGGGUUUCAGAGAUACCAGCCGUAUUGUAGGCCCUUGGCAGCUCGAGUGAUGUUCGAGCCGCCUCUGGC [Eredorxela] | 111 | 102 | 120 | 129 | 109 |
| UGGGUGUAGUGAUGUUAUAUAGAGAGUGAUACCAGUUUAGAGAAGAACCCUUGGCAGCAUAGAAGAGUAUCAUUGGAGAAGAAUG [ExTheophyl.As] | 459 | 348 | 422 | 378 | 339 |
| UGGAGUUGACGAAAAGUCAACUCCUGAGAAGGAGCGCACGAAAGUGCAGGUAGGUCGCUCUACCAGUGAUGUUGGUACUUAAUAA [#OpenEnded 6] | 92.1 | 170 | 117 | 162 | 84.5 |
| CCCUCACGAGUGAUGUUCGUAGGGUACAGUCAGGAUAUCAUGCGGUUGAGAAGGGACAGAGAGGGCGGCCACGGGUUGCUCCUCU [Lariusteza] | 183 | 259 | 386 | 345 | 305 |
| GGUAUCUAUACAGAUACCAGUCGUACGGCUGCAUUACAGGUUAGUGAUGUUAACCUGUACGACCCUUGGCAGCUGUAUAGUAGUA [#14 K4 Theophylline B Exclusion] | 115 | 94 | 115 | 197 | 104 |
| CCAUCGCUAUUCGAUACCAGCUCCUUAGUGAUGUUAAGGUUUUACCCUCUGUAGGAGGGAAGCCCUUGGCAGCGAGUAGUGAUGG [#03 K4 Theophylline B Same State] | 1270 | 802 | 948 | 623 | 1370 |
| GGUCCACGCCAUGCCAGUGAUGUUGGUAAGCGAGGACCGGUACGGCCGCCACUCGUUCAAUACCGUAUCGCCCAUAACCUGGAGA [Oneseror] | 113 | 89.1 | 104 | 96.5 | 118 |
| GGCGGCCGCGCGAAAGCGCGGCCGGCCGAUACCAGCGCGCCGGCGCGCCCUUGGCAGCGGCGCCGAGUGAUGUUCGGCCUGCCGU [#2 Same State - Theophylline A Attempt #12 (HarryS)] | 144 | 101 | 112 | 134 | 125 |
| UGUGAACAAAAGUAGAGUGGACCACUAUAGCGAGGACCGGUACGGCCGCCACUCGUACAUGAAUUCAGUGAUGUUGAAAAGAGCU [whbob_EX_Tryp_A_t13] | 294 | 413 | 307 | 400 | 209 |
| AGUGGACGUUACCGGAGUGAUGUUUCGGAUACCAGACACGAAAGUGUCCCUUGGCAGCCGUAGUGAUGUUACGGAGUUCACUAAA [KL-XTheo-A12 #KL 2] | 125 | 61.5 | 103 | 88.7 | 85.1 |
| AGUAUGUAAUAUGGCAUAUUUAGAACUGAAGGAGCGCCGAAUAAGGCAGGUAGGUCGCGGUUUUAUGAGUGAUGUUCUUGUUUAA [KL-SSArg-A24] | 156 | 125 | 149 | 329 | 111 |
| UAGAUAAUGUAAGAUUAUGAUAAUUGGGAAGGAGCGCGGAAAUUCGCAGGUAGGUCGCCCUAUAAAGUAGUACGAGUGAUGUUCG [6.)] | 217 | 205 | 281 | 305 | 261 |
| UCGAAGGAUGGAAGGAGCGCUCGUCAGUCCUGCGAGUGAUGUUCGUGGGUAAAUAUUCGCGAGCAGGUAGGUCGCCAUCUCGAAC [Erbemaa] | 149 | 103 | 141 | 122 | 117 |
| ACUGAGCAUGCGGCCGCCACUUCAGAACGUCGCCCAAAGGGCGACGCCUCCAGAGUGAUGUUCUGGAGGACCGGGCAUGUUCAGA [Omei KL Tryp B Exc A v1] | 540 | 300 | 506 | 450 | 112 |
| UGUACCGAGUCAGGAUAUGGCGUCGAAAGACGAAUCUUAGUGAUGUUAGGGAUCUGCGAAAGCAGUCCAGAAGGGACUUGGUACU [FmnBS 26 U37] | 568 | 583 | 768 | 605 | 902 |
| AAAAUAAACCAGUGAUGUUGGUGUCUAGAUACCAGCGACGAAAGUCGCCCUUGGCAGCUGUGGACGUACAAAAUAAGUACGUCCU [MatMod 5 - Jieux - Same State - Theophylline A] | 564 | 327 | 541 | 480 | 472 |
| UUAGAGAUCUCAGGAUAUCAGUGAUGUUGAGAUUCAGAUCUGAGAUAGAAUUCUAUCUCAGAUCAAUGAGAAGGGAGAUCUCAUU [AK4.4 Exc FMN B] | 463 | 540 | 649 | 699 | 443 |

| Sequence | apparent KD of K4 kissing-loop reporter (input ligand: FMN 200 uM) [nM] | apparent KD of K4 kissing-loop reporter (input ligand: arginine 13.2 mM) [nM] | apparent KD of K4 kissing-loop reporter (input ligand: none) [nM] | apparent KD of K4 kissing-loop reporter [1] [nM] | apparent KD of K4 kissing-loop reporter [2] [nM] |
| --- | --- | --- | --- | --- | --- |
| GAUAUAUAUAGAGGAUAUAGCAGGUGAUACAAGAAAGUGAGUGAUGUUUAUGUAGAUGAUGAUAUGUUAGAAGGCUAUAUAUAUC [radioactive7-modED1598] | 844 | 736 | 766 | 723 | 706 |
| AUUAAUUUCAGAGGAUAUCGUUAUUUUUUUUAUUUUAUUCAUUUAUGCAGUGAUGUUGCUAUUAUUCGAGAAGGCUGAUUUAUAA [JR_ExcFMNB_Sub005] | 97.9 | 126 | 62.9 | 146 | 74.1 |
| ACCGCAUUGGGCUGAUCCCAAUGCGCUGGUCGAGGACCGGUACGGCCGCCACUCGUCCAGUGAUGUUGGACUAGGGCAACUGAAG [Veraceer] | 390 | 244 | 249 | 449 | 83.3 |
| ACAUAGGAUGGAAGGAGCGCUCGUCAGUCCUGCGAGUGAUGUUCGUGGGUAAAUAUUCGCGAGCAGGUAGGUCGCCAUCUUGAAA [Vedi] | 109 | 115 | 158 | 177 | 164 |
| AAUUAAUACAGAAGGAGCGUGAAAUUAUCUACUUUUAACUUAGCGAGUGAUGUUCGUUUUUCACAGGUAGGUCGCUGUAUAUUUA [JR_ExcArginiB_Sub009] | 167 | 214 | 194 | 192 | 152 |
| AGAGUACGAAAGUACUCCUCUACACACUGUCGAGGACCGGUACGGCCGCCACUCGAGUUGAGUGAUGUUCGAUAGUGUGUAGAGA [Omei KL Tryp A SS C v4] | 66.4 | 57.3 | 30 | 104 | 142 |
| UCAUGAAAGACGGCCGCCACUGAUGCUGGAGUGAUGUUUCGGACAUAGUAGAGUGAUGUUCUGCGCAGGACCGGGUCGUCAUGAA [KL-SSTryp-B10 #double Kiss] | 132 | 64.6 | 134 | 130 | 62 |
| UUGACCUACUCAGGAUAUCCGCAGUGAUGUUGCGGUUGGCCUGAGCGGCAUGAAAAUCUUACUACAGGAGAAGGGAGAGGGUUAC [Atusgeis] | 117 | 85.6 | 82.6 | 72.9 | 86 |
| UGACUGGAUGGAAGGAGCGCUAAACUCCUAGUGAUGUUAGGGAUACGAGGCAAAGCCUCGAAGCAGGUAGGUCGCCAUCUAGUCU [FiskerMod 21 - Jieux - Same State - Arginine B] | 171 | 123 | 146 | 171 | 159 |
| UGACUGGACUGAAGGAGCGGGCGAGACAAAGUCUCGAACUCUUAGUGAUGUUAGGAAAUAACCCAGGUAGGUCGCAGUCUAGUCU | 243 | 132 | 178 | 216 | 188 |
| UAUUCUGUUCGAAAGAACGGAAUUUCGGAAGGAGCGAGAGAAAUCUCAGGUAGGUCGCCGAAAUUAUUAGAUAGUGAUGUUAUCU [Arginine A K4 4] | 162 | 110 | 135 | 177 | 158 |
| UCGCAAAAGUCGGCCGCCACUCCGGGCCCUAUAAAUGGGCGCAGUGAUGUUGCGGCUAGGCCUCUGAGGACCGGGACUUUGAAGA [Esesbior] | 101 | 25 | 23.9 | 102 | 131 |
| GUUACGCAUGGAAGGAGCGCAGGCUCAACAAAUAGCUCAGUGAUGUUGAGCAUAUUAAUUCUGCAGGUAGGUCGCCAUGUGUAAC [Ex Arginine B K4 25] | 531 | 491 | 551 | 536 | 508 |
| ACUGAGUUGACGAAAGUCAACAAUUGAGAAGGAGCGCACGAAAGUGCAGGUAGGUCGCUCAGUCCAGUGAUGUUGGAUCAUCAGA [#17 K4 Arginine A Same State] | 324 | 558 | 383 | 478 | 275 |
| AUACGCGAUAGCGUAUAUAACUUUUCAGAAGGAGCGUGGAAGUACACAGGUAGGUCGCUGAAUAUAGGACUAGUGAUGUUAGUUA [JR_Nu_SSArginiA_Sub025] | 195 | 220 | 235 | 218 | 186 |
| GUAUCGCUAGGAGGAUAUUUCAAUUUGACUCUUUGAGUUAUUACGGAGUGAUGUUCCGAUUUACGGAAAGAAGGCCUAGUGAUAC [FMN B 12] | 140 | 170 | 202 | 172 | 179 |
| UCGCCAAAGUCGGCCGCCACUCCGGGCCCUAUAAAUGGGCGCAGUGAUGUUGCGGCUAGGCCUCUGAGGACCGGGACUUUGUAAA [Tiesgeza] | 119 | 85.2 | 68.9 | 32.5 | 133 |
| UGACUGGACUGAAGGAGCGCGCGAGACAAAGUCUCGAACUCUUAGUGAUGUUAAGAAAUAACGCAGGUAGGUCGCAGUCUAGUCU | 138 | 122 | 147 | 133 | 150 |
| ACCACCUGUCUGGAUACCAGUCUUCGAGUGAUGUUGGAAGUUAGCCGGUUCUAUUACCUAGACCCUUGGCAGCCAGGAAUUAUAG [theeternabot_exclusion_KL_Theo_B_17] | 1140 | 861 | 1500 | 1130 | 872 |
| UGACAUUGCUCAGAUACCAGACUUGAGGAUCACCCAAGUGCCAAAACGUACUAAAUAAAAGUCCCUUGGCAGCUGAGCAAUGUCU [TheoBX 13] | 49.2 | 45.9 | 40.6 | 88 | 54.1 |
| AAGUGAUGUUGUAGUGAUGUUGUGAUGUUGCAGGAUAUAUAGUGAUGUAGAAGGGUAUGUACAGUUUUUUUUUUUGAGUGAUGAU [vvcvmullin] | 82.3 | 40.1 | 74.2 | 51.4 | 70.3 |
